The values that follow come from US5880103A, “Immunomodulatory peptides” (President and Fellows of Harvard College, priority 1995, dated 1999).

Some results are limits rather than exact numbers.

The assay addresses T1, HLA-DR1 (Homo sapiens, UniProt P01903+P01911, A100R/D57E/F55L/F60I/F76Y/I96L/L162R/M171V/P40L/Q125E/R42F/V115G/Y59C).
T1 construct: made in house; host or cells: Sf9 insect cells
Put plainly: Competition of synthetic peptides against 125I-labeled HA 307-319 for binding to "empty" HLA-DR1.

On to “Ii 107-120: invariant chain peptide named in the text as highest-affinity competitor; probably the Ii 106-120 entry of Table 2 (MRMATPLLMQALPM)”, for which the “relative binding affinity to DR1 (in words)” value (competitor peptides vs HA 307-319, "empty" DR1, at first approximation) is recorded as “highest affinity of all the competitor peptides measured”.
On to `CSCC[C@H](NC(=O)[C@H](CCCNC(=N)N)NC(=O)[C@H](CCSC)NC(=O)[C@H](CCCCN)NC(=O)[C@H](CO)NC(=O)[C@@H](NC(=O)[C@@H]1CCCN1C(=O)[C@H](CCCCN)NC(=O)[C@@H]1CCCN1C(=O)[C@@H]1CCCN1C(=O)[C@H](CCCCN)NC(=O)[C@@H]1CCCN1C(=O)[C@@H](N)CC(C)C)C(C)C)C(=O)N[C@@H](C)C(=O)N[C@H](C(=O)O)[C@@H](C)O` [Ii 97-111], for which the Ki – broadly, a dissociation constant, usually derived from enzyme kinetics or from competition with a known ligand – is more than 10 µM.
